These results are taken from the RNAGym collection of RNA variant scans (doi:10.1073/pnas.2313332121).

The chains are these.
B1: TPR t1 (parent)
chain: GACCAAUCUGCCCUCAGAGCUCGAGAACAUCUUCGGAUGCAGAGGAGGCAGGCUUCGGUGGCGCGAUAGCGCCAACGUCCUCAACCUCCAAUGCAUCCCACCACAUGAUGAUGCCUGAAGAGCCUUGGUUUUUUG

The variants in the data set derive from B1. The data set can be described thus: polymerase ribozyme fitness, log enrichment relative to wild type (log ratio); higher = more active; in vitro selection for triplet polymerase activity. Summed up:
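Fitness measures genotype enrichment against wild-type enrichment on a logarithmic scale, with inverse-variance-weighted averaging of replicates. The logarithm is base 2, and genotypes were kept only with ≥10 input reads and ≥1 read per output in Illumina sequencing. The sequenced libraries came from one triplicate in vitro selection round, including frozen incubation at −7 °C, of PCR-built, transcribed mutant libraries of each subunit of a heterodimeric triplet polymerase ribozyme.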
Regarding G61U A111C, the “polymerase ribozyme fitness (log ratio)” value was -0.083.
As for G60A U112A, the “polymerase ribozyme fitness (log ratio)” value stood at 1.13.
The same measure for U38A C114A A121U: -1.59.
The same measure for C8U C53G: -0.0198.
Then C86U C89U, with -0.118; and G71U U133A, with -0.757.
Regarding C64U A75U G93A, the “polymerase ribozyme fitness (log ratio)” value is -0.503.
The same measure for U7G U54C U55G: 0.467; for A27G C40G: -1.89.
Then C40G C86U A100U, with -3.33.
Turning to G17U U21A, the “polymerase ribozyme fitness (log ratio)” value was -3.26.
With C34A G60C A100G, the “polymerase ribozyme fitness (log ratio)” value was -5.76.
Then A18U U38G G71A C89A U129A, with -6.64.
Then C11G G69C, with -1.7.
The same measure for A46G G120C G128C: -2.6; for C28G C34U G35U A37U A95C C114U U133G: -6.83.
As to C70U G122A, the “polymerase ribozyme fitness (log ratio)” value is -0.84.
Then C8G G35U C123A, with -3.92; and C11U A66C C94U, with -1.69.
Then C28U G45A C70U C124U, with -2.79; and C85U U132A, with -1.56; and A103U C123U, with -3.47.
Then C56G U96A C123G U130C, with 0.506.
As to G69A A91U, the “polymerase ribozyme fitness (log ratio)” value is -6.02.
The same measure for C22A C82A C89A A111G: -6.04.
Then C15U G19A C89A, with -5.15; and A26U C72U C124U, with -1.98; and U7A U21A G61C C114G, with -5.5.
For the variant U38A G63A, the “polymerase ribozyme fitness (log ratio)” value was -2.12.
The same measure for G44U G113C U130A: -2.45; for G47A C124G: 0.559; for C11U G44C C104U U116C: -3.59.
Then G63C C85G, with -1.96.
The same measure for A18C G71U: -3.18.
For G69A C72G A95G U125A, the “polymerase ribozyme fitness (log ratio)” value was -6.14.
Then A29U C62G, with -2.45; and A84G U116G, with -2.89.
Then C8G A46G, with 0.594; and C12U U133A, with 0.306.
For the variant A50C G52C C56G G63A G77U, the “polymerase ribozyme fitness (log ratio)” value was -6.51.
Turning to A6C C8A U87A, the “polymerase ribozyme fitness (log ratio)” value is 0.391.
Regarding G71A C104A, the “polymerase ribozyme fitness (log ratio)” value is -2.33.
The same measure for G69A U131G: -3.12; for G17C A91C: -4.65; for G44U A121G: 0.89.
Then C13U G44U G58A U59A G61A C62U, with -2.38; and C8U A27U, with -1.79.
The same measure for U9G C56U C62U C94U U96A: -1.52; for A50G C82A G120U: -0.452.
Take C12G A26U C34U G42U G44U C62G U96C U106A U109A C115G: the “polymerase ribozyme fitness (log ratio)” value was -6.33.
In the case of G107U C114A, the “polymerase ribozyme fitness (log ratio)” value is -7.09.
For the variant C101U A105C C114A, the “polymerase ribozyme fitness (log ratio)” value is -6.11.
C12U C102A: the “polymerase ribozyme fitness (log ratio)” value is -1.07.
A74U C89U: the “polymerase ribozyme fitness (log ratio)” value was -0.535.
With C15A C114U, the “polymerase ribozyme fitness (log ratio)” value is -4.61.
The same measure for C49A A74C C94U U116A: -3.09; for A2G A5G C20A A46C U112G G122U U129C: -5.3.
The same measure for C70G A105U G113A: -6.59; for C11U G60U U78C U116C: -2.11.
The same measure for U54C G71A C85G C101U U112G G120C: -4.36; for C31U C72U U112A: -3.81.
Regarding G39A G135U, the “polymerase ribozyme fitness (log ratio)” value was -1.41.
Then C4G U112C, with -0.0354; and A24G G63U G113U, with -6.59.
The same measure for G10U G61U: 0.128; for C22U C94A: -4.02.
The same measure for C13G G48U C64U: -2.15.
In the case of G61U C72U, the “polymerase ribozyme fitness (log ratio)” value was -0.409.
The same measure for G48A G52A C101G: -2.71; for G51A C62U C124U: -1.17; for C4G U9A C62G C89A C115A G117C: -5.76.
Consider C8A C28A G63U G77C C86A U112C, for which the “polymerase ribozyme fitness (log ratio)” value is -6.46.
The same measure for U126C: -0.485; for C12A A37C: -1.93; for G117C A121U: -3.
The same measure for C4G U78G C80U: -1.48.
Then U9A G117U, with -1.08.
C13G G60C G77U C101A G120C: the “polymerase ribozyme fitness (log ratio)” value was -1.78.
The same measure for G36U G52U: -2.2; for C3G G10A U106A: -2.9.
The same measure for U9C C72U C98U G120A: 0.967; for C13U A75G C76G U133A: -0.431.
The same measure for C11A C64A A108U G110A: -6.85; for A16C C40U G52A U59G U112A: -1.53; for U32C C99U: -2.13.
C15G A26U G44C G117C: the “polymerase ribozyme fitness (log ratio)” value was -2.36.
Then C56U U78G U106G G110A U129A U131C, with -4.97; and C76U U92G, with -3.28; and A5G G60A G117A G135C, with -0.941.
As for C40G G71A, the “polymerase ribozyme fitness (log ratio)” value is -1.91.
Then C11G C22U, with -2.75.
The same measure for U7C A66U U106C: -1.58.
Then C40A A43U C82U, with -3.09; and U9C G36A C85U C123A, with 0.00121; and C40U G71A U78G C123G U125C, with -1.36.
As to G10U G36C C86G G128C, the “polymerase ribozyme fitness (log ratio)” value is -5.29.
Then C8G C11G C53U C62U U81G C102A, with -4.4; and G52U C88U C98A G120U, with -5.88; and G19C C86G A121G, with -0.947.
The same measure for G39A G71A C86A A100C: -4; for U32G C82U A121C: -6.01.
For the variant C56G C94U, the “polymerase ribozyme fitness (log ratio)” value is -0.644.
The same measure for C12U C98U: -0.736; for G52U G69A C94A C104U A118G: -5.65.
Then A18G C64U G113A, with -1.65; and C76A C79G, with -0.726.
In the case of C86A G135U, the “polymerase ribozyme fitness (log ratio)” value was -1.3.
The same measure for A16U G61U: -1.11.
The same measure for G48C A50G C102A: -3.21; for G44A G77C U78A G93A: -1.9; for G19C C49G U92A U125G: -4.13.
Then A29G C124U, with 1.18; and C3U G17U C64U, with -3.03; and C13U G39U G44U, with -1.24.
As to U14G C123U, the “polymerase ribozyme fitness (log ratio)” value is -0.161.
The same measure for G44C G61A C80A: -4.34.
The same measure for C73U C94U G113U: -3.64; for C22G G120A: -2.9.
The same measure for C12A C40A: -2.34; for G48U A111C: -0.214.
Take G61A C88U C89A: the “polymerase ribozyme fitness (log ratio)” value is -1.82.
Then U54C C124U, with 1.81.
U55G C102A G110A U130A: the “polymerase ribozyme fitness (log ratio)” value is -6.51.
The same measure for C12U G48C C72G U131G: -1.72.
Then A43C C85U C115G, with -4.93; and A26G C73A, with -1.78.
The same measure for G48A C88U U96A: -1.74.
In the case of G51U C62A G110C, the “polymerase ribozyme fitness (log ratio)” value was -8.04.
On to U9G A50C, for which the “polymerase ribozyme fitness (log ratio)” value was -0.315.
The same measure for C11G G51U C62A G71A C89U C97U: -6.66; for G60C C97A: -4.44.
In the case of U33A U87A, the “polymerase ribozyme fitness (log ratio)” value was -4.12.
The same measure for G69C A100U: -1.67.
The same measure for A27U C49A C56U C62U U87G G113C: -6.58; for A6C G35C G57U G58U G60C U81G A111G U125C G135A: -6.83; for C85G U112G: -1.15.
As for C85G U112C, the “polymerase ribozyme fitness (log ratio)” value was determined as 0.41.
Then C22G U78G, with -4.47; and U9A G10C C79A C101G, with -2.55.
U14C G61A G110C: the “polymerase ribozyme fitness (log ratio)” value was -5.14.
Then C82G C101A C115A, with -2.63; and A29U C82A, with -2.3; and G36A G61U U96G, with -1.71.
Regarding G17A C20A C31G G36U A46C C124A, the “polymerase ribozyme fitness (log ratio)” value is -7.12.
As to G17C G61A C82A, the “polymerase ribozyme fitness (log ratio)” value was -4.03.
The same measure for C20A G42A G57U A100C: -6.04.
Consider C13A C89A, for which the “polymerase ribozyme fitness (log ratio)” value is -3.37.
Then C15U A91C, with -2.75; and A2G U54A G60C U106G, with -2.29.
With U38G G44A, the “polymerase ribozyme fitness (log ratio)” value is -2.72.
The same measure for A118C C124G: -0.56; for C15A G52U C94G: -3.9.
Then G71A U92C, with -2.39; and C20U G61C C114U, with -1.73; and C72U U132A, with -0.0764.
Then C85U C97A C115G, with -5.83; and C49A C73U G120U, with -0.216; and G19A G61A U125G, with -2.54.
In the case of A41U G48C A83C C88G, the “polymerase ribozyme fitness (log ratio)” value was -4.38.
Then C70A U129A, with -3.27.
Then U21G U54C C56A G57C, with -1.15.
With G42U C70U, the “polymerase ribozyme fitness (log ratio)” value was -2.26.
With C53U G69U C70U C82U, the “polymerase ribozyme fitness (log ratio)” value was -0.71.
Then C40U G110U G135C, with -2.95; and C20G G120U, with -4.25; and U9C A41C C53G A68G C73U, with -5.47.
Consider G45U C114A, for which the “polymerase ribozyme fitness (log ratio)” value is -0.0443.
